Laboratory results: US20230212268A1 (UNM RAINFOREST INNOVATIONS, published 2023)

Legend:
[1] = target: recombinant BDBV glycoprotein (BDBV (Bundibugyo ebolavirus)); experiment: ELISA dose-response fit, reference scFv22-1
[2] = target: T1, recombinant RESTV glycoprotein (RESTV (Reston ebolavirus), UniProt Q66799 34-651); experiment: maximal binding from ELISA dose-response fit
T1 sequence: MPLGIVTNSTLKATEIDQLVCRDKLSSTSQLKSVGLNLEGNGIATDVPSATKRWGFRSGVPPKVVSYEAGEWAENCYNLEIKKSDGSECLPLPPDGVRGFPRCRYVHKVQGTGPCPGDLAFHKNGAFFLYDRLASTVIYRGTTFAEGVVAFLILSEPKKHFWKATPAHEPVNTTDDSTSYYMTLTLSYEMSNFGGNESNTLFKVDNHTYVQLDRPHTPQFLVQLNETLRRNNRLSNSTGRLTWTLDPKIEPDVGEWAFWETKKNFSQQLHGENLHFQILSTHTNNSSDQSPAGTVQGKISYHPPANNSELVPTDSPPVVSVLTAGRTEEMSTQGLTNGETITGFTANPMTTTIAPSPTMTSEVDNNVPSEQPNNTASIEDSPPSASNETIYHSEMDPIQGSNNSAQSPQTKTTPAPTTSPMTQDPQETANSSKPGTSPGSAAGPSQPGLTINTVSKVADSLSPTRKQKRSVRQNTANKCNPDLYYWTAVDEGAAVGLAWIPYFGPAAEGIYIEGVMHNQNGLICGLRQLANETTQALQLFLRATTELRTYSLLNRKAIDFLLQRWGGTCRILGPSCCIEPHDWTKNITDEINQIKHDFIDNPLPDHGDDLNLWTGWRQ

[3] = target: T2, recombinant MARV glycoprotein (MARV (marburgvirus, Ravn), UniProt Q1PDC7 19-648); experiment: ELISA dose-response fit, reference scFv22-1
T2 sequence: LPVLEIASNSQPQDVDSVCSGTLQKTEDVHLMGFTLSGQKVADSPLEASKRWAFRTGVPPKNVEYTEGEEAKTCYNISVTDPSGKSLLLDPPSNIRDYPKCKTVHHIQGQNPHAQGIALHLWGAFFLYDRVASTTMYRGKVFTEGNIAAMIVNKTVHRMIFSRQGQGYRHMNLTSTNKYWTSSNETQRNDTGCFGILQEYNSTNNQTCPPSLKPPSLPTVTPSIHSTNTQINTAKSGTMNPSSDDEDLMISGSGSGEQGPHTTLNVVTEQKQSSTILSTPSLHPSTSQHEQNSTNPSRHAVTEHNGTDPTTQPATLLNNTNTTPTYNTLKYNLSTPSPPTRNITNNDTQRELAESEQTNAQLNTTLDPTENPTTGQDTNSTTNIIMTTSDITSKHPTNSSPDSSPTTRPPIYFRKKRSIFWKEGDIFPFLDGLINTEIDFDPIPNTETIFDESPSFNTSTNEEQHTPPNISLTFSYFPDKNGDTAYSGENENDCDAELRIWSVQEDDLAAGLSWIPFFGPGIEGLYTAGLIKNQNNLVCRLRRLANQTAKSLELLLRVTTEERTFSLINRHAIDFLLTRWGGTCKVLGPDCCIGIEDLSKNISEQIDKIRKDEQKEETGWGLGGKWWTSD

[4] = target: T3, recombinant EBOV glycoprotein (EBOV (Zaire ebolavirus), UniProt Q05320 33-650); experiment: ELISA dose-response fit, reference scFv22-1
T3 sequence: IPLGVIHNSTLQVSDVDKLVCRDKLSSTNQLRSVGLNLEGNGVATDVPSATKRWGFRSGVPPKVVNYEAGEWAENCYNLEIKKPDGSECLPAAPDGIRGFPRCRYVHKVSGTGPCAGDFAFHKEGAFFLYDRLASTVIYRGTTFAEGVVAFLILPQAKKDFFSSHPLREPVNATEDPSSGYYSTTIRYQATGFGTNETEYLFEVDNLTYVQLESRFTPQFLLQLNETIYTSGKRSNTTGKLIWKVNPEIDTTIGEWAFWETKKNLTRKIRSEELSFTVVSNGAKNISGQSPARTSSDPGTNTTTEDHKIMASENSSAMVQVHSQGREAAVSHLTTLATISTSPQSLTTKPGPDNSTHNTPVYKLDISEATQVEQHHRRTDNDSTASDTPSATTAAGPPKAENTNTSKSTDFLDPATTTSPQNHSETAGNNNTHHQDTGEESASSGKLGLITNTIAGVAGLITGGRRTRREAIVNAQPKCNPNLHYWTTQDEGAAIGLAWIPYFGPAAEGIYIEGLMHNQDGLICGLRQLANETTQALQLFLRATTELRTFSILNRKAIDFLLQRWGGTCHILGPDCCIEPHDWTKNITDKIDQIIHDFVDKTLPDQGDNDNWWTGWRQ

[5] = target: T1, recombinant RESTV glycoprotein; experiment: ELISA dose-response fit, reference scFv22-1
[6] = target: T4, recombinant SUDV glycoprotein (SUDV (Sudan ebolavirus), UniProt Q7T9D9 33-650); experiment: ELISA dose-response fit, reference scFv22-1
T4 sequence: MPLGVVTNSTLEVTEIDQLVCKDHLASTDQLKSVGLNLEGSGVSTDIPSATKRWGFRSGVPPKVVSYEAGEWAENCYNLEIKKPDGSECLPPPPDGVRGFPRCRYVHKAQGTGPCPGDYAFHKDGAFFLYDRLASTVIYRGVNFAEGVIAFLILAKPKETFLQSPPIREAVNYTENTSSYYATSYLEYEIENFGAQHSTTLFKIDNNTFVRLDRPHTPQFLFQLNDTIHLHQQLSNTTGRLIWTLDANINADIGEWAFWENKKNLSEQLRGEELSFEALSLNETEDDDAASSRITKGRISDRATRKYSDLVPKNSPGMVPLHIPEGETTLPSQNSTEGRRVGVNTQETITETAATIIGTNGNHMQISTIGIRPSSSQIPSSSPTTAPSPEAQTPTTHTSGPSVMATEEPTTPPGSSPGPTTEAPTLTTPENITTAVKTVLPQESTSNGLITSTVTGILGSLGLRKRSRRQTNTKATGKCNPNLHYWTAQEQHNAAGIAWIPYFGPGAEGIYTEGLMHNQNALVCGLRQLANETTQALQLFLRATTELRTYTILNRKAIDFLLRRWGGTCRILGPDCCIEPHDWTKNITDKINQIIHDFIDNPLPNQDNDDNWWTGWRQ

B1: EbovGPscFv4-2 (scFv)
scFv: MAWSHPQFEKTGSGGAELVKSGASVKLSCTASGFNIKDDYMHWVKQRPEQGLEWIGWIDPENGDTEYASKFQGKATITADTSSNTAYLQLSSLTSEDTAVYYCTTYYYGSAWFAYWGQGTLVTVSAGGGGSGGGGSGGGGSGGGGSASLSVSVGETVTITCRASGNIHNYLAWYQQKQGKSPQLLVYNAKTLADGVPSRFSGSGSGTQYSLKINNLQPEDFGSYYCQHFWSTPYTFGGGTKLEIKRADAAPTVSIFPPSSEQLTSGGASVVCFLNNFTHCQELQQDECS
fold affinity against scFv22-1 [1]: 2 fold | Bmax signal [2]: 210000 relative absorbance units | fold affinity against scFv22-1 [3]: ~2 fold | fold affinity against scFv22-1 [4]: ~2 fold | fold affinity against scFv22-1 [5]: ~2 fold | fold affinity against scFv22-1 [6]: ~2 fold
